Drawing on patent US20190345255A1, this text covers percent inhibition and optical density (O.D.) for two molecules.

In experiment [1] the target is Mouse recombinant MGL2 (macrophage galactose binding lectin 2) (mouse). Briefly: competition ELISA on MGL2-coated plate; 10 µg/mL Tn-BSA against 10 µg/mL biotinylated TF-PS A1 probe 25b (a polysaccharide) as competitor. (An ELISA detects its analyte on a solid surface through an enzyme-linked reagent.)
For experiment [2] the target is unchanged. Briefly: competition ELISA on MGL2-coated plate; 10 µg/mL Tn-BSA against 10 µg/mL biotinylated Tn-PS A1 probe 25a (a polysaccharide) as competitor.
Experiment [3] addresses Tn-BSA (Tn antigen conjugated to bovine serum albumin) (bovine) (UniProt P02769). The experiment in a line: ELISA titration of purified IgM, Tn-BSA coated plates.
UniProt P02769, sequence (P02769 25-607 limits assumed, form in doubt): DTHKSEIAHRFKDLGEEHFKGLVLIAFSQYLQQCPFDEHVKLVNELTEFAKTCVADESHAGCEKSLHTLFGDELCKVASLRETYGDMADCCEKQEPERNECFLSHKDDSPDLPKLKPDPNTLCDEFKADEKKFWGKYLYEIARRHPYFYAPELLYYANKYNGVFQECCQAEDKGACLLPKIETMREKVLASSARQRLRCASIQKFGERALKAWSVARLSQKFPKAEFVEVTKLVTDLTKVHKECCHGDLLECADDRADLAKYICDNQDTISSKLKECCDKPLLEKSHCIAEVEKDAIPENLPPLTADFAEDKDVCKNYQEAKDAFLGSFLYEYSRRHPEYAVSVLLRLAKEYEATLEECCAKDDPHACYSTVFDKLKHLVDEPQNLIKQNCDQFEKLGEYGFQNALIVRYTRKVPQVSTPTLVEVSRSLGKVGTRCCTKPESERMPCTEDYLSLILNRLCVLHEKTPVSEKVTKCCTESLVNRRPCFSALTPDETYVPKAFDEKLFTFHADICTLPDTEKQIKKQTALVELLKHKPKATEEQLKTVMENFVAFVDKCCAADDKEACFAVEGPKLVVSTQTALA

As for “Tn-BSA (Tn antigen conjugated to bovine serum albumin) (from UniProt P02769 25-607)”, the percent inhibition stood at 64% in experiment [1] and 44% in experiment [2].

B1: Kt-IgM-8 (antibody, V domains shown)
VH: QIQLVQSGPELKKPGETVKISCKASGYTFTTYGMSWVKQAPGKGLKWMGWINTYSGVPTYADDFKGRFAFSLETSASTAYLQINNLKNEDTATYFCARHYYGGAYWGQGTLVTVSA
VL: QIVLTQSPAIMSASPGEKVTMTCSASSSVSYMHWYQQKSGTSPKRWIYDTSKLASGVPARFSGSGSGTSYSLTISSMEAEDAATYYCQQWSSNPLTFGAGTKLELK
Take B1: the optical density (O.D.) at 0.3 µg/mL antibody in experiment [3] is over 0.2 O.D.
